Source: patent US6875743B1, “Cell adhesion inhibitors” (Biogen, Inc., priority 1996, dated 2005)
* marks the point of attachment. 2‑MPUPA = 4-(N′-(2-methylphenyl)urea)phenylacetyl, Cc1ccccc1NC(=O)Nc1ccc(CC(=O)*)cc1; Quinaldoyl = O=C(c1ccc2ccccc2n1)*; Bz = O=C(c1ccccc1)*; Ahx = NCCCCCC(=O)O

B1: Compound 341 (peptide)
peptide: {2‑MPUPA}-LPVD-OH
SMILES: Cc1ccccc1NC(=O)Nc1ccc(CC(=O)N[C@@H](CC(C)C)C(=O)N2CCC[C@H]2C(=O)N[C@H](C(=O)N[C@@H](CC(=O)O)C(=O)O)C(C)C)cc1
B2: Compound 153 (peptide)
peptide: Bz-FLDV-OH
SMILES: CC(C)C[C@H](NC(=O)[C@H](Cc1ccccc1)NC(=O)c1ccccc1)C(=O)N[C@@H](CC(=O)O)C(=O)N[C@H](C(=O)O)C(C)C
B3: Compound 339 (peptide)
peptide: {2‑MPUPA}-VLPD-OH
SMILES: Cc1ccccc1NC(=O)Nc1ccc(CC(=O)N[C@H](C(=O)N[C@@H](CC(C)C)C(=O)N2CCC[C@H]2C(=O)N[C@@H](CC(=O)O)C(=O)O)C(C)C)cc1
B4: Compound 168 (peptide)
peptide: Quinaldoyl-LDVM-OMe
SMILES: COC(=O)[C@H](CCSC)NC(=O)[C@@H](NC(=O)[C@H](CC(=O)O)NC(=O)[C@H](CC(C)C)NC(=O)c1ccc2ccccc2n1)C(C)C
B5: Compound 315 (peptide)
peptide: {2‑MPUPA}-MDVP-OH
SMILES: CSCC[C@H](NC(=O)Cc1ccc(NC(=O)Nc2ccccc2C)cc1)C(=O)N[C@@H](CC(=O)O)C(=O)N[C@H](C(=O)N1CCC[C@H]1C(=O)O)C(C)C
B6: Compound 186 (peptide)
peptide: Quinaldoyl-LDVM-OH
SMILES: CSCC[C@H](NC(=O)[C@@H](NC(=O)[C@H](CC(=O)O)NC(=O)[C@H](CC(C)C)NC(=O)c1ccc2ccccc2n1)C(C)C)C(=O)O
B7: Compound 202 (peptide)
peptide: {2‑MPUPA}-K(Ahx)DVP-OH
SMILES: Cc1ccccc1NC(=O)Nc1ccc(CC(=O)N[C@@H](CCCCNC(=O)CCCCCN)C(=O)N[C@@H](CC(=O)O)C(=O)N[C@H](C(=O)N2CCC[C@H]2C(=O)O)C(C)C)cc1
B8: Compound 338 (peptide)
peptide: {2‑MPUPA}-LDVPST-OH
SMILES: Cc1ccccc1NC(=O)Nc1ccc(CC(=O)N[C@@H](CC(C)C)C(=O)N[C@@H](CC(=O)O)C(=O)N[C@H](C(=O)N2CCC[C@H]2C(=O)N[C@@H](CO)C(=O)N[C@H](C(=O)O)[C@@H](C)O)C(C)C)cc1

Biological target: T1, α4β1 integrin, very late antigen-4 (VLA-4) (UniProt P13612 34-1032; P05556 21-798, limits assumed)
T1 construct: whole, on cells; also called CD49d/CD29
T1 sequence (P13612 34-1032 limits assumed, chain 1 of 2): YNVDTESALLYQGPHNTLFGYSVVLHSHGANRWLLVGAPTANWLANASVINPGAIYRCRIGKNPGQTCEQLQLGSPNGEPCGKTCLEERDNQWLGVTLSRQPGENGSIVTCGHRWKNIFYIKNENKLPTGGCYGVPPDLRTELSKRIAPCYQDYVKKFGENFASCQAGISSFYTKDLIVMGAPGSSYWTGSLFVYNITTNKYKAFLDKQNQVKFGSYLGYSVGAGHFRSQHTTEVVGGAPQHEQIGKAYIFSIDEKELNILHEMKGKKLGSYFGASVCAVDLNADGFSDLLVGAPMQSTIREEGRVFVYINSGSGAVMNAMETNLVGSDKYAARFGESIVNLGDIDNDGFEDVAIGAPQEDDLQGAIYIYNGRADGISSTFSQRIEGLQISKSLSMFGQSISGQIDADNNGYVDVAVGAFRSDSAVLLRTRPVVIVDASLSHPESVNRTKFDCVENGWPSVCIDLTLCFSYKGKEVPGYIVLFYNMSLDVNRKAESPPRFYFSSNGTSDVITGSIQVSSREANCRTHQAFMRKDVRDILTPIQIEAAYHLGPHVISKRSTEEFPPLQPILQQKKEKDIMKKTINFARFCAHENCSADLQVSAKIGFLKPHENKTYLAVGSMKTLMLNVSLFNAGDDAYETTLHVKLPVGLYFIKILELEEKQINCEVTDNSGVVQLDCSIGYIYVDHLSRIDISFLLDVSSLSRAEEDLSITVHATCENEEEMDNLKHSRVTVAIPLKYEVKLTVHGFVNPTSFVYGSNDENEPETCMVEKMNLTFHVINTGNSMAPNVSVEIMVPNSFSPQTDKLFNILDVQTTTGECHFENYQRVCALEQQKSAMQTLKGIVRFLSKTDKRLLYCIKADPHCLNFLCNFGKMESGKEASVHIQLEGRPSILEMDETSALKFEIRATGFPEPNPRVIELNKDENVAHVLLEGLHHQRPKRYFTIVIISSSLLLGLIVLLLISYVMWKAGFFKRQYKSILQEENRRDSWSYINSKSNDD
T1 sequence (P05556 21-798 limits assumed, chain 2 of 2): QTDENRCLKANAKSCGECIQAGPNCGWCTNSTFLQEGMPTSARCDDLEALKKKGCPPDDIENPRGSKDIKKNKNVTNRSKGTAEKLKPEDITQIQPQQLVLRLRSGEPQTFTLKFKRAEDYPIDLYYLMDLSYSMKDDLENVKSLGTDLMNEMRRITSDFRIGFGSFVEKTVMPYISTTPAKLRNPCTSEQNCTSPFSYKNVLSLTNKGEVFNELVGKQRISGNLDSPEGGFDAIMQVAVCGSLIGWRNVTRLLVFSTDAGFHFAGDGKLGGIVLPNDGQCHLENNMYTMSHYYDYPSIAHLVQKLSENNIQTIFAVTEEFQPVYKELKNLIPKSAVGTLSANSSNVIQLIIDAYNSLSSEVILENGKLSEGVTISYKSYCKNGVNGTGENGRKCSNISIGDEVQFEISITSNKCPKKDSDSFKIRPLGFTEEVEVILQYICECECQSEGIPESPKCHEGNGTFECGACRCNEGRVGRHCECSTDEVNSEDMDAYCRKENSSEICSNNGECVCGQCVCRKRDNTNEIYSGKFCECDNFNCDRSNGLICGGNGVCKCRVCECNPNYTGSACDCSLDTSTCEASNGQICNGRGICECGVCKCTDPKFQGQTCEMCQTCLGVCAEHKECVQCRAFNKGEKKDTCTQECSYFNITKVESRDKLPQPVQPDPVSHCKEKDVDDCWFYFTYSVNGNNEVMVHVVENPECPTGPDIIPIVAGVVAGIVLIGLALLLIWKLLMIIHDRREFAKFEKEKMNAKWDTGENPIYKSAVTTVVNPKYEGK
Test: inhibition of Ramos cell adhesion to BSA-CS1
Experimental: Following labelling, the cells were washed twice in assay buffer (24 mM TRIS, 137 mM NaCl, 2.7 mM KCl, pH 7.4, containing 0.1% BSA and 2 mM glucose) to remove any cations originating from the culture medium. The cells were then resuspended in assay buffer to 4×10⁶ cells/mL and 2 mM MnCl_2 was added to upregulate VLA4 on the surface of the cells.
Immediately prior to running the assay, we removed the BSA blocking solution from the 96-well plates and washed the wells with 100 μL of assay buffer. We then added to each well 25 μL of test cell adhesion inhibitory compound at 2× the final concentration and 25 μL of the labelled Ramos cells. […] Each concentration of compound was tested in triplicate. The compound and cells are allowed to incubate for 30 minutes at room temperature.
Percent binding is calculated by the formula: […]

Binder | IC50 [µM]
B1 | > 10
B2 | > 10
Ac-FLDV-OH [Compound 152] | > 10
{2‑MPUPA}-LDVPS-OH [Compound 337] | < 0.05
B3 | > 10
B4 | 0.05 to 10
B5 | < 0.05
B6 | > 10
B7 | 0.05 to 10
B8 | < 0.05
